Results on one molecule are retold here after paper doi:10.1101/2023.03.27.534325, “Distinct role of TGN-resident clathrin adaptors for Rab5 activation in the TGN-endosome trafficking pathway” (bioRxiv, 2023).

Experiment [1] deals with T1, GFP-tagged active Vps21p mutant (Q66L) (S. cerevisiae, UniProt P36017 1-210, Q66L).
T1 construct: Vps21p (yeast Rab5), Saccharomyces cerevisiae, constitutively active mutant; also called Vps21Q66L; constitutively active Q66L mutant of Vps21p
T1 sequence (looked up): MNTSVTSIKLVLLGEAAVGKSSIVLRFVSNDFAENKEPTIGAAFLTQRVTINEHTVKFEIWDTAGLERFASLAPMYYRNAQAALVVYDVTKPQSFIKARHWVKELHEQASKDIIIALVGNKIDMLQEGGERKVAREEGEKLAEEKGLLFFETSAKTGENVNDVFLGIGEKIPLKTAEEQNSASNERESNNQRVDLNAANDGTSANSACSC
In words: pull-down; extract of yeast cells expressing GFP-tagged Vps21p mutant incubated with GST-GNB-bound Glutathione sepharose-4B; washed; incubated with Nluc-RbNT at 200 nM; bound fractions blotted with anti-6×His or anti-GFP antibody. The settings on record: both partners purified.

In a further experiment the target is T2, GFP-ALFA-Vps21p (S. cerevisiae, UniProt P36017 1-210).
T2 construct: Vps21p (yeast Rab5), Saccharomyces cerevisiae; The ALFA peptide lies between GFP and Vps21p, by the printed name; also called Rab5; yeast Rab5 (Vps21p); not shown: GFP, N-terminal, kept; ALFA peptide, N-terminal, kept
T2 sequence (looked up): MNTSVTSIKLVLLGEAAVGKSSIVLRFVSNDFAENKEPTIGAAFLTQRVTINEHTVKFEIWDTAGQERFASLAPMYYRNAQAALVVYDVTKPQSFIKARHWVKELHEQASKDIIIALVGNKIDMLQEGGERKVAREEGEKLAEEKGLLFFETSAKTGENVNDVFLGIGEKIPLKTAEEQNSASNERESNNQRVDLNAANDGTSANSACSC
In words: pull-down; GFP-ALFA-Vps21p from 600 μg cleared lysate of wild-type yeast held on GST-ANB Glutathione sepharose-4B; washed (20 mM Tris-HCl pH 8.0, 500 mM NaCl, 10 mM MgCl2, 0.1% NP-40); 10 pmole 6×His-RbNT-Nluc added, 1 hr in the cold room; eluted with ALFA peptide; Nluc activity read. Also run on ent3Δ ent5Δ, ent3Δ ent5Δ apl4Δ, pik1-1, pik1-1 ent3Δ, pik1-1 ypt31ts and pik1-1 ypt31ts gga1Δ gga2Δ cells. The following applies: both partners purified.

B1: 6×His-Nano luciferase (Nluc)-Rabenosyn5 N-terminal fragment (domain or fragment, human, UniProt Q9H1K0 1-40, looked up)
chain: MASLDDPGEVREGFLCPLCLKDLQSFYQLHSHYEEEHSGE
notes: Rabenosyn-5, human, N-terminal fragment (1-40 a.a.), RbNT; The legends name it 6×His-Nluc-RbNT and the methods 6×His-RbNT-Nluc; The cloning sites (Nluc at XhoI/EcoRI, RbNT at EcoRI/HindIII of pColdI) fit His-Nluc-RbNT; also called Nluc-RbNT; 6×His-RbNT-Nluc; source: E. coli KRX, purified (Ni-NTA agarose); not shown: His6, N-terminal, kept; Nano luciferase, N-terminal, kept
For B1, the binding result (in experiment [1]; with GFP-ALFA-Vps21p) was “binds” each time.
